A short description of the series: soluble on expression in E. coli; label from the status in PepcDB or PDB records.
Consider “MIIGIDVGGTNTDAAIVSDEIKTIKLPNEAGIGGILKEISKEANLIEEKVVVSTSWPLNLIISKFSESRTLSLVIPGPGLNYSEYGEVLKGYVNHRGDVVEDIDEYEIAAIFRENSYDNVAISSKFSVRNGSLEDRVAEIVRNYVEDYRIALSHYAGGMNYPARIHTTVVNAKIRETVYRLTELIKAYAGDFYYFKGDGGIVPYTIALNNPSELYNSSPAAVALGAVYLTGEKNALVVDIGGTSTDFVEVIDGMPKIVEGIELAGRKTLIRCVDSVSIPFGGDSVVENGKLVPVCSKPIAFGGESFTLTDALNCAGYEIGDYRSSRKYECDVEKALNQFVSLAATTVREIGCKKIVGTGYLAPYLIPEVAKAAGVEYVIPDHYESANAVGVAVSRVSLTLYVRIDTEKCFAAYNGHTESCPFKPGSLPDDEQILEVAKEKVVEVAKKFGASEEELGKVRTVYFNSFTVVRGGMKRGVIADVIVQIEPGIRYGGLAAALEHHHHHH”, for which the “soluble on expression in E. coli” value is on record as “not soluble”. “FEQEGRDVALDYRWMPYKRISTNLKKALIASEDARFAGHGGFDWGGIQNAIRRNRNSGKVKAGGSTISQQLAKNLFLNESRSYIRKGEEAAITAMMEAVTDKDRIFELYLNSIEWHYGVFGAEAASRYFYQIPAAKLTKQQAAKLTARVPAPLYYADHPKSKRLRNKTNIVLKRMGSAELPESDTD”: the “soluble on expression in E. coli” value is “not soluble”. With “HGPAEISDLDRQIEQLRRCELIKESEVKALCAKAREILVEESNVQRVDSPVTVCGDIHGQFYDLKELFRVGGDVPETNYLFMGDFVDRGFYSVETFLLLLALKVRYPDRITLIRGNHESRQITQVYGFYDECLRKYGSVTVWRYCTEIFDYLSLSAIIDGKIFCVHGGLSPSIQTLDQIRTIDRKQEVPHDGPMCDLLWSDPEDTTGWGVSPRGAGYLFGSDVVAQFNAANDIDMICRAHQLVMEGYKWHFNETVLTVWSAPNYCYRCGNVAAILELDEHLQKDFIIFEAAPQETVRASSPSPL” the entry was “soluble”; with “GSGRVSLNFKDPEAVRALTCTLLREDFGLSIDIPLERLIPTVPLRLNYIHWVEDLIGHQDSDKSTLRRGIDIGTGASCIYPLLGATLNGWYFLATEVDDMCFNYAKKNVEQNNLSDLIKVVKVPQKTLLMDALKEESEIIYDFCMCNPPFFANQLEAKGVNSRNPRRPPPSSVNTGGITEIMAEGGELEFVKRIIHDSLQLKKRLRWYSCMLGKKCSLAPLKEELRIQGVPKVTYTEFCQGRTMRWALAWSFYD”, “soluble”. Then “MIEIAKIGDDFDRWQDLLALIMTSFAYMDGVIDPPSSAYRLTLENLAEKARAEIAFVALDSDELLGCLFCRPEPPASLYVGKLCVSPKAQGKGIGKLLLLQAEALARELALPALRLETRIELLSNHTKFAAWGFVKTAENAHAGYDRTTSIEMTKFLG”, with “not soluble”. Then “MSLKIVDATVLVTCPGRNFVTLRITTDEGVTGLGDATLNGREQAVVAYLREHVVPLLLGTDPHRIEDTWQSLYRGAYWRRGPVTMAAIAAVDVALWDIKAKVANLPLYQLLGGASRERVRTYGHANGRDIPELLDSVRARQAEGYQAIRVQTGVPGLRKVYGVHTGEAIAHNPTRLDQRAVPVVEDWDTPAYLRHLPTVLEAVRNEFGPELPLLHDAHHRLTPLQAAKLGKDVERYDLFWLEDCTPAENQEAFRLVRHHTTTPLAVGEVFNTVFDYQTLIAEQLIDYARSAVTHFGGVSALRKLFDFAAQHQVKSAIHGPEDISPVGMAAAIHLDLAVHNFGIQEYSGHTDATNEVFRHAYTFTDGHLHPGEAPGIGVDYDEELAAAHPYDPAYLPVNRLADGTVHDWEGHHHHHH”, with “not soluble”. As to “MRDGEGIWGRGRTGGHAHPKEAMHTTFFILGGTMLIGVISDTHLYDRAFELPKAVFDEFSNVDLIIHCGDVTDKEILDSLKDLAKVVAVKGNMDYLNLPRKEILEINDIKIGVIHGDVVYPRGDRLKLRLLGKEMGVDVLISGHTHTPFIDDCRDILLLNPGSPTVPRCPLKSIMKLSVEDKLEAKLIPIEE”, the “soluble on expression in E. coli” value was “soluble”. As for “MKFDKPAGENPIDQLKVVGRPHDRIDGPLKTTGTARYAYEWHEEAPNAAYGYIVGSAIAKGRLTALDTDAAQKAPGVLAVITASNAGALGKGDKNTARLLGGPTIEHYHQAIALVVAETFEQARAAASLVQAHYRRNKGAYSLADEKQAVNQPPEDTPDKNVGDFDGAFTSAAVKIDATYTTPDQSHMAMEPHASMAVWDGNKLTLWTSNQMIDWCRTDLAKTLKVPVENVRIISPYIGGGFGGKLFLRSDALLAALAARAVKRPVKVMLPRPSIPNNTTHRPATLQHLRIGADQSGKITAISHESWSGNLPGGTPETAVQQSELLYAGANRHTGLRLATLDLPEGNAMRAPGEAPGLMALEIAIDELAEKAGIDPVEFRILNDTQVDPADPTRCFSRRQLIECLRTGADKFGWKQRNATPGQVRDGEWLVGHGVAAGFRNNLLEKSGARVHLEQNGTVTVETDMTDIGTGSYTILAQTAAEMLGVPLEQVAVHLGDSSFPVSAGSGGQWGANTSTSGVYAACMKLREMIASAVGFDPEQSQFADGKITNGTRSATLHEATAGGRLTAEESIEFGTLSKEYQQSTFAGHFVEVGVHSATGEVRVRRMLAVCAAGRILNPKTARSQVIGAMTMGMGAALMEELAVDDRLGYFVNHDMAGYEVPVHADIPKQEVIFLDDTDPISSPMKAKGVGELGLCGVSAAIANAVYNATGIRVRDYPITLDKLLDKLPDVV”, the “soluble on expression in E. coli” value was “not soluble”. With “MTKEKLSWLQQKMLNKSIKKKCQNFRELGYSSINEEDLLTYLLTYRWKKQTHLSVKDCRKDIHKVKPNEFFDYQQLLAQTSKNPLRDWHDIEDLF” the entry was “not soluble”.

Regarding “MGSDKIHHHHHHMVDTNHKIAFCIDSDGCAMDTMTYKHQLFFGPIAADIFGISEQERTSFLKEWDRVNLYSRTRGVNRFVGLVMGLEFAGVEHIDKLKEWVETTDSLSNNSLELALANDFSRDLEKALEWSNEVNRQIKNYEGDSLAFSGVLESLERLSQFGNVYVVSSANKEAVWQEWEEQGLLKYVDDIYCQDRGKKEDVIATLIASGYCRETILMVGDSLGDLAAAEQNGIAFYPVLVGKEVKSWEILREDIGEAFAKGQFEQQRQKESINTFWANLDN”, the “soluble on expression in E. coli” value is “not soluble”.

For “MGSDKIHHHHHHMSLFNLSLVTFEIDHEDCWSKLTSSFPVQVKTIFAKPSKGKDYILGMDEVKTYNRRVFKDFLKSFKKEKSIYEIIQILELDSRRGIYRILFKERYENMIMSIIENYMTLYIKDLIKEGNERLLLIMPSSDVTMLKRDLESIGKIHYFNAKLVNFNDFVPTFFDFSEQERNAVLHAIRLGYYEYPRRINLEELGKIMGISKPTLEEYLRKAEKKIMSKIFREFYQQDLLFHSPDY”, the “soluble on expression in E. coli” value is on record as “not soluble”. With “MAHHHHHHMAKDNKGKVKKAAGEETVKYYRVKGKKKILIPVKAKKTIAKKYYGRKLASKKKYIVQGKMRKSIEVGKVAIILSGKHMGKRCIITKVLTSGLLAVVGPYEVNGVPLKRVNPRYVVVTSTNIFKFENMAGLKDEFVKLAEQIEDNSFVKSLEIKKKQKKLLSKKNEGLFMNDVITKIKELMKEDPKMQQLQKIQKEIGTLLKDEIAKNKIFAEYLKSKFTLRNDMALHKMKF” the entry was “not soluble”; with “MNDTPDDTFVSGYLLYLLAASSEEASAQFHDHIRAQGLRVPEWRVLACLVDNDAMMITRLAKLSLMEQSRMTRIVDQMDARGLVTRVADAKDKRRVRVRLTDDGRALAESLVASARAHETRLLSALADTDAARIKGVLRTLLDVLDRPRESR”, “soluble”. Turning to “MNNEAVFSARLSSTQHVGLCRLCNSPLVHTFVDLGMSPPCESFVAADAANDVEPFYPLHAFVCDECFLVQLQEYVAPENIFTEYAYFSSFSDSWVAHAKRYCDMVIERFALGQSSFVVELASNDGYLLQHFLTSNIPMLGIEPAVNVAKVAIGKGIPTLTEFFNEALATDMAARGQKADLIIGNNVLAQVPDINDFVAGMKTLLKPEGVITLEFPHIEKLIAENQFDTIYHEHFSYFSLLTIEKMARRHGLKVFDVEEIPTHGGSLRVFFSHEDIRFPREARVDSLLARELNAGLDKIETYTAFAEAVRQTKRNLLSFLIRLKEMRKSICAYGAPGKGNTLLNYCGIGTDFIDFAVDRNPYKHGRLTPGMHIPIRPVSEIPHMKPDYVLILPWNLKNEIVAQMKDIRNWGGKFIVPIPDISIIDPKELVQ”, the “soluble on expression in E. coli” value is “not soluble”.

Take “MGSDKIHHHHHHMWQAISRLLSEQLGEGEIELRNELPGGEVHAAWHLRYAGHDFFVKCDERELLPGFTAEADQLELLSRSKTVTVPKVWAVGADRDYSFLVMDYLPPRPLDAHSAFILGQQIARLHQWSDQPQFGLDFDNALSTTPQPNTWQRRWSTFFAEQRIGWQLELAAEKGIAFGNIDAIVEHIQQRLASHQPQPSLLHGDLWSGNCALGPDGPYIFDPACYWGDRECDLAMLPLHTEQPPQIYDGYQSVSPLPADFLERQPVYQLYTLLNRARLFGGQHLVIAQQSLDRLLAA”: the “soluble on expression in E. coli” value is given as “not soluble”. With “METAVEVRAPAAAAWELLTDTRRWSEWGPSVSGVECPERFIGPGTIGWVRTVVGLRLPFRITEFEPGRRWCWSVAGIPATGHRVEPLGQERCRVVFEVPMPAAPYLAVCRVAALRIRSILEGLEHHHHHH” the entry was “not soluble”. On to “MSLRLRKDVLNYESRQKSDLLIPNSNSISIYNQIADKYSRKITREEIFSGIYFLRYFLLRNAKGDVLEVGSGPGTNFPFYKWKKINTLTLVEPAEKMREIADARAKKKVPPNVLYRQFADLRQLPPNQSYDTIIQTFCICSQEKAVEQLNNYRSLLRSDGRILLIEHGKGKYKFLNRILNAYAESHYESWGCVWNRDIEQLLEDSELTIDSCKRFNFGTTYVIEAHEGHHHHHH”, for which the “soluble on expression in E. coli” value was “not soluble”. Then “MTTKLVRPSDQATSNQVPVPGALVPHLDQCALLLDIDGTLLDLAPTPREVWVPPELEQTLTNLLVRTSGALALVSGRSINDIDLIFAPMRLPAVGGHGAEMRLSGEGEAIATHAPPLDSELKSRLAAIARISPGILLEDKGYSLALHYRLAPHTEKAIYEAVAAIRAENPEAPLEVLPGKSVCEIKHSGFTKATGVLELMTRAPFKGRRPIFIGDDVTDETVFAIMPELRGLAFSVGRYSELTSGHFDEPRDVRNWLARLLEPANLEHHHHHH”, with “soluble”; and “GPGSMRYFVVAHEFQAEEDVELSVFKGEILCATEGVAQDGWIKVEATTDARRRGFVPMSYLREISAAEASTSMSAPASSAPPLTGESTSPMRTPQRAGGESSARAALANTTVSTSLDLGNCSGVVAKGFSPSLQPMRSPETTAVHAAPASSSIHLTPAQQAAGPVSRHLLENPNAVVDAFMKNEVYFNQLMQRRASALAQMQSGLEEAMTEVAACKDRSAVLTRKLHDLDGVVERERQRWMDRVEEEKVHVSRSIPYSAPLAVPVSSGTTPLRSPIIGPHSGVGRSVLDDDSPRQLRA”, with “soluble”; and “MFKKEKGGWFYMAGLKVEWNDWCPGCGNFGILSAEQQAIQELGLDPKKVVLVSGIGCSGKIPHFIRLPASGVHTLHGRALTFAIGIKLANPSLEVIVNGGDGDQLGIGVGHFVSAGRRNVDLTVIVHNNGVYGLTKGQASPTLKLGVKTKSLPKPNINSDINPIALAISSGYTFVARGYAYDVKHLKEIIKKAIKHKGLAMIDVLQPCPTYNDIHTKEYYDKRVYKLDEDPSWDPIVKKPEEMDDKMSKAILKSMEWGDRIPIGIFYQNELVSTYEQRIAERSPSYLDNPPAHDVIEFEGKPTTDVEDILKERRVT”, with “not soluble”. Then “MAHHHHHHNEKDIGKLKKTFEAFDHNGDGVLTISEIFQCLKLNDNELDTELYFLLKQLDTDGNGLIDYTEFLAACLDHSIFQQDVICRNAFNVFDLDGDGVITKEELFNILSFSAVQVSFSKEIIENLIKEVDANNDGFIDYDEFYKMMTGAK”, with “soluble”.

These data come from the DeepSol protein solubility set.
